This is an account of results in patent US20030028002A1, “Cyclin D binding factor, and uses thereof” (published 2003).

In one data set the target is T1, Ets1 full length (UniProt P14921 P14921:1-441).
T1 sequence: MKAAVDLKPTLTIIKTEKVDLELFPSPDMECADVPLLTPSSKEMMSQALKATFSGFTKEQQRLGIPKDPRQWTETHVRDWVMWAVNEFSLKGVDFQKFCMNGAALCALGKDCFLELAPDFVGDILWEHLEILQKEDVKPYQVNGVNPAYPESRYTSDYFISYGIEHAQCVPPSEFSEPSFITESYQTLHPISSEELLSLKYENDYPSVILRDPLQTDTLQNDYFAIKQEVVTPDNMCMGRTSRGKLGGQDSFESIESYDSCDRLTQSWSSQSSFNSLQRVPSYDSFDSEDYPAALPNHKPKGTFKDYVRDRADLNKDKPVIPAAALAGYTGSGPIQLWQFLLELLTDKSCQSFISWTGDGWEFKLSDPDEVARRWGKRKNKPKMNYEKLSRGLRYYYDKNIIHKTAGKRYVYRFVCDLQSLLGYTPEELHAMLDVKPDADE
As to the kind of experiment: EMSA; supershifted by Ets1 antiserum. As for the experimental part: (§1) Electrophoretic mobility shift assay (EMSA). Recombinant DMP1 protein was prepared in Sf9 cells [Hirai and Sherr, Mol. Cell. Biol. 16:6457-6467 (1996)]. Purified bacterial proteins representing the Ets1 DNA binding domain or full-length Ets1 [Inoue, et al., J. Biol. Chem. 273:29188-29194 (1998)] were used. EMSAs were performed [Inoue and Sherr, Mol. Cell. Biol. 18:1590-1600 (1998)] using either a 281-bp genomic fragment (−225 to +56) or double-stranded oligonucleotides containing the DMP1/Ets site obtained by annealing oligonucleotide 5′-[…]-3′ (sense strand SEQ ID NO:41); DMP1/Ets consensus sequence underlined) with a complementary antisense strand. For competition experiments, a 200-fold excess of unlabelled oligonucleotides was added to reaction mixtures before the probe. To verify the identity of the proteins in shifted complexes, reaction mixtures were incubated with control nonimmune rabbit serum (NRS), serum AF [Hirai and Sherr, Mol. Cell. Biol. 16:6457-6467 (1996)] and M-10 (both to DMP1 carboxylterminal epitopes), S-19 (DMP1 N-terminus), or C-20 (Ets1 C-terminus) before electrophoresis. M-10, S-19, and C-20 were from Santa Cruz Biotechnology.

In the next data set the target is T2, Ets1 DNA-binding domain (UniProt P14921 P14921:335-415).
T2 sequence: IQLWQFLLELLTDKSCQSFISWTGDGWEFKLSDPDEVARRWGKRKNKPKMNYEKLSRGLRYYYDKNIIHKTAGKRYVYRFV
As to the kind of experiment: EMSA. The method, then: as §1

B1: ARF DMP1/Ets site oligo 23 bp (dsDNA)
DNA 1: AATTGGGACCCCGGATGCGGCAG
DNA 2: CTGCCGCATCCGGGGTCCCAATT
In the case of B1, the binding result with Ets1 full length and with Ets1 DNA-binding domain was “binds” throughout.
